According to patent US20250188194A1, “Method of treatment” (Nucleus Therapeutics Pty Ltd, priority 2021, published 2025):

Columns and labels:
[1] = test system: differentiated PLB-985 cells; test: Quantifying DNA released (adherent NET-DNA) after PMA stimulation by spectrophotometry; assay type: cell-based, human; details: 10 μM DX1 one hour, 300 nM PMA four hours; PMA control 4.50±0.14; N=3
Procedure: The results of the DAPI and SYTOX™ Green staining studies in FIG. 2C, 2D are consistent with DX1-mediated inhibition of chromatin decondensation and DNA release by differentiated PLB-985 cells. To further probe this effect, DNA-protein release was measured by differentiated PLB-985 cells after PMA stimulation by resuspending and quantifying DNA-protein complexes adherent to wells by spectrophotometry using a previously described protocol for isolation and quantification of NET-DNA in cell culture. This assay is based on the concept that intact cells for the most part remain in suspension, while DNA-protein complexes released in NETs are at least partially adhered to wells. This distinction allows for separation of intact cells from adherent NET-DNA by aspiration of the cell culture supernatants, followed by resuspension of adherent DNA-protein complexes and quantification by spectrophotometry.
Next, the ability of this assay to detect the effect of a known NETosis inhibitor on DNA release by differentiated PLB-985 cells stimulated by PMA was verified. […] Differentiated PLB-985 cells were treated with 0-50 μM of GSK484 for one hour prior to stimulation with PMA, followed by quantification of adherent DNA by spectrophotometry. […]

[2] = test system: mouse neutrophils; test: Mouse neutrophils NETosis visualization (MPO, H3Cit, PAD4 immunostaining); assay type: cell-based; details: 10 μM DX1 30 minutes, N=4
Procedure: Neutrophils obtained from thioglycollate-treated mice and directly plated onto 20-well plates were treated with control media or media containing 10 μM DX1 for 30 minutes, and then observed for four hours, after which cells were fixed and immunostained for markers of NETs including myeloperoxidase (MPO), H3Cit, and peptidylarginine deiminase 4 (PAD4). The percentage of NETs released per 100 cells was determined by visualization on confocal microscopy and analyzed by ImageJ (NIH).
Neutrophils obtained from thioglycollate-treated mice and directly plated onto 20-well plates were treated with control media or media containing 10 μM DX1 for 30 minutes, and then stimulated with PMA for induction of NOX-dependent NETosis for four hours, after which cells were fixed and immunostained for markers of NETs including MPO, H3Cit, and PAD4. The percentage of NETs released per 100 cells was determined by visualization on confocal fluorescence microscopy and analyzed by ImageJ (NIH). […]
Neutrophils obtained from thioglycollate-treated mice and directly plated onto 20-well plates were treated with control media or media containing 10 μM DX1 for 30 minutes, and then stimulated with a calcium ionophore (ionomycin, IM) for induction of NOX-independent NETosis for four hours, after which cells were fixed and immunostained for markers of NETs including MPO, H3Cit, and PAD4. The percentage of NETs released per 100 cells was determined by visualization on confocal fluorescence microscopy and analyzed by ImageJ (NIH).
All mouse work was conducted under a protocol approved by Monash University's Animal Ethics Committee. […] Cells were fixed in periodate-lysine-paraformaldehyde (PLP) overnight, immunostained for markers of NETs including myeloperoxidase (MPO, #AF3667 R&D Systems, MN, USA), H3Cit, and PAD4 (#AB128086, abcam), mounted in DAPI ProLong™ Gold (Molecular Probes, Thermo Fisher Scientific) and NETs were visualized by confocal fluorescence microscopy with a Nikon Ti-E inverted microscope (Nikon Instruments Inc, Melville, NY, USA). […]

B1: DX1: 3E10 derivative, a di-scFv having the sequence SEQ ID NO: 38; nuclear-penetrating anti-DNA binding protein (protein)
scFv: DIQMTQSPSSLSASLGDRATITCRASKTVSTSSYSYMHWYQQKPGQPPKLLIKYASYLESGVPSRFSGSGSGTDFTLTISSLQPEDAATYYCQHSREFPWTFGGGTKVEIKTVDAAPGGGGSGGGGSGGGGSEVQLVESGGGLVQPGGSLRLSCAASGFTFSNYGMHWVRQAPGKGLEWVSYISSGSSTIYYADSVKGRFTISRDNAKNSLYLQMNSLRAEDTAVYYCARRGLLLDYWGQGTTVTVSSASTKGPSVFPLAPLESTGSDIQMTQSPSSLSASLGDRATITCRASKTVSTSSYSYMHWYQQKPGQPPKLLIKYASYLESGVPSRFSGSGSGTDFTLTISSLQPEDAATYYCQHSREFPWTFGGGTKVEIKTVDAAPGGGGSGGGGSGGGGSEVQLVESGGGLVQPGGSLRLSCAASGFTFSNYGMHWVRQAPGKGLEWVSYISSGSSTIYYADSVKGRFTISRDNAKNSLYLQMNSLRAEDTAVYYCARRGLLLDYWGQGTTVTVSS
modifications: DX1 sequence
released/adherent DNA content relative to unstimulated control cells [1]: 1.80±0.11
percentage of NETs, unstimulated neutrophils ([2]; no stimulus, four hours, control 3.5%±1.0): 4.0%±1.5
percentage of NETs, ionomycin (IM) stimulation (NOX-independent NETosis) ([2]; then IM 4 μM four hours, control 15.5%±3.1): 2.3%±0.8
percentage of NETs, PMA stimulation (NOX-dependent NETosis) ([2]; then PMA four hours, control 36.3%±11.1): 8.3%±2.7
